Measurements as given in publication PMC4019693 (Nanomedicine : nanotechnology, biology, and medicine, 2013).
“And” between values parts separate entries of the source, which are not always exact repeats. Equal values may be shown once. “Also recorded” adds a separate entry of the source.

How the values were obtained:
Aβ40 [1] = assay: SMFS of Aβ40 interaction; type: binding; conditions: Aβ40 vs Aβ42, neutral pH; ref [10]
Aβ40 [2] = conditions: cited from earlier work
Aβ42 [3] = molecular target: T1, Aβ42 (Homo sapiens, UniProt P05067); assay: Single-molecule AFM force spectroscopy; type: binding; conditions: pH 7
Aβ42 [4] = molecular target: T1, Aβ42; assay: Dynamic force spectroscopy; type: binding; conditions: for Lifetime of the dimer: calculated by k^−1off, SD from five independent experiments
Aβ42 [5] = molecular target: T1, Aβ42; assay: Contour length analysis of Aβ42 dimers; type: binding; conditions: for Prevailing region of interpeptide interaction: in words
[6] = SDS-page gel experiment, monomer state of Aβ42; type: physicochemical; conditions: diluted in different pH buffers from DMSO stock solution (Fig. S1)
[7] = single representative curve (Fig. 2A), WLC fit, ALR ~4,000 pN/s
[8] = pH 7, area under Gaussian curve

T1 sequence (P05067 672-713 limits assumed): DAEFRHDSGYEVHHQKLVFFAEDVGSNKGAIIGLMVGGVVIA

Aβ40: Aβ protein containing 40 residues; Aβ42 differs by two extra C terminal residues (I41 and A42)
Dimer lifetime relative to Aβ42 (Aβ40 [1]): four times shorter
Dimer lifetime relative to monomer dynamics (Aβ40 [2]; Aβ40 dimer lifetime vs monomer dynamics, ref [10]): ~10^6 times
Conformer population, major interactions (L0 and L1) (Aβ40 [2]; pH 7, N-terminal segment interactions, ref [10]): 74%
Lifetime of misfolded Aβ40 dimers (Aβ40 [2]; ref [10]): 0.1 s
Rupture forces of dimers compared to Aβ42 (Aβ40 [2]; result in words, reference not given, Aβ40 study is ref [10]): quite similar to those for Aβ42

Aβ42: Aβ42 terminated with cysteine at N-terminus (AnaSpec, Inc., Fremont, CA)
Rupture force of representative curves with various contour lengths (Aβ42 [3]; four curves of Fig. 4A, similar ALR (~20,000 pN/s)): 150±20 pN
Contour length, representative F-D curve (Aβ42 [3]; [7]): ~ 58 nm
Rupture force, representative F-D curve (Aβ42 [3]; [7]): ~ 83 pN
Lifetime of dimers (in words) (Aβ42 [4]; SMFS/DFS, pH not given): in the range of a second; also recorded: higher than that of Aβ40
Lifetime of the dimer (Aβ42 [4]; pH 2.7): 2.5±0.7 s and 2.5 s and 2.5 (±0.7) s
Increase of the dimer lifetime, pH 2.7 vs pH 7 (Aβ42 [4]; pH 2.7 vs pH 7): ~5 fold
Lifetime of the dimer (Aβ42 [4]; pH 7): 0.46 (±0.25) s
ΔG, barrier height for dimer dissociation (Aβ42 [4]; pH 7, calculated from koff): ~ 28.3 kBT
Prevailing region of interpeptide interaction (Aβ42 [5]; acidic pH (2.7)): interaction within the peptide center prevailed
Conformer population, model L3 (C-termini), change vs pH 7 (Aβ42 [5]; pH 2.7 vs pH 7, result in words): three-fold drop in the interaction between the C-termini (model L3)
Conformer population, model L0 (interactions very close to N-termini) (Aβ42 [5]; [8]): 13%
Conformer population, model L1 (middle segments) (Aβ42 [5]; [8]): 29%
Prevailing region of interpeptide interaction (Aβ42 [5]; pH 7): Interaction via C-terminal segments prevailed
Contour length, Gaussian center L0 (Aβ42 [5]; pH 7 and 2.7, L0): around 35 nm
Contour length, Gaussian center L1 (Aβ42 [5]; pH 7 and 2.7, L1): ~41 nm
Contour length, Gaussian center L2 (Aβ42 [5]; pH 7 and 2.7, L2): ~47 nm
Contour length, Gaussian center L3 (Aβ42 [5]; pH 7 and 2.7, L3): ~53 nm
Monomer state by SDS-page gel [6]: The monomer state of Aβ42 diluted in different pH buffers from the stock solution was confirmed
